Laboratory results: patent publication US20100129807A1 (published 2010)
Where no end group is shown, it is not given here.

Target: T1, bacterial repressor protein LexA (UniProt P0A7C2 1-202)
T1 construct: One entry is used for LexA in all assays; also called LexA target (pEG202); LexA bait
T1 sequence: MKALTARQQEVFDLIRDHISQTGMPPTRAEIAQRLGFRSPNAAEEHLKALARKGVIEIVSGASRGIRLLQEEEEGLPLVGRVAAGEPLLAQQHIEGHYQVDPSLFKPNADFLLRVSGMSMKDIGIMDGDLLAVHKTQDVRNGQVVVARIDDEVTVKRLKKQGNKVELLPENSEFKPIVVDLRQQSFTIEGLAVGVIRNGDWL
Experiment: SPR (BiacoreX), L2 peptide immobilised on a CM5 chip, LexA injected

B1: synthetic linear L2 peptide with a TAT importer sequence at the N-terminal (NH2-GRKKRRQRRRPPQ-SRSWDLPGEY) (peptide)
peptide: H-GRKKRRQRRRPPQSRSWDLPGEY
notes: Immobilised on a CM5 sensor chip for SPR
With B1 the Kd was 1700 nM.
